In publication PMC7924230, “Insights into the structure of mature streptavidin C1 from Streptomyces cinnamonensis reveal the self-binding of the extension C-terminal peptide to biotin-binding sites” (IUCrJ, 2021) one finds Kd, T i and stoichiometry N data, which are given here for 5 molecules.

The target in one experiment is T1, streptavidin C1 (Streptomyces virginiae, UniProt A0ABQ3NKM7).
T1 construct: ORF Met1-Glu191 in pET-21a, E. coli BL21; His-tagged (C1-His); mature N-terminus 34-SADPR-38; homotetramer about 76 kDa
T1 sequence (A0ABQ3NKM7 26-191 limits assumed): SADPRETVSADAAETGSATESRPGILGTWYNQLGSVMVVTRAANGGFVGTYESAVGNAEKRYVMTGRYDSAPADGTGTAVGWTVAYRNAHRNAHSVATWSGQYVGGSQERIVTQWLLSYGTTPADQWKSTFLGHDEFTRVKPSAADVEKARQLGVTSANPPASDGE
The experiment can be described thus: microscale thermophoresis (MST), His-tag-labelled protein. The format is binding. Background: Microscale thermophoresis detects binding through changes in fluorescence in a small temperature gradient.

In another experiment the target is T2, streptavidin C2 (Streptomyces virginiae, UniProt A0ABQ3NKS0).
T2 construct: gene Scinn_28310; cloned in pET-21a, E. coli BL21; His-tagged (C2-His); homotetramer about 68 kDa
The experiment is described as above. The format is binding. Particulars: read-out: apparent K d.

The next experiment has as its target T3, avidin (Gallus gallus, UniProt P02701).
T3 construct: gene AVD; homotetramer
Briefly: thermal unfolding, intrinsic fluorescence […] nm (Tycho NT.[…]). It is filed as binding. Particulars: PBS-T, 1 mg/ml protein, 4 mg/ml D-biotin.

Experiment [1] deals with streptavidin C1 from Streptomyces cinnamonensis strain KPP02129, recombinant mature form (Streptomyces cinnamonensis). Briefly: SEC-MALS; Superdex 200 10/300 GL, 20 mM Tris-HCl pH 8.0, 100 mM NaCl, 2 mM DTT; 1-2 mg/ml, 0.25 ml injected, 0.8 ml/min. (In general: SEC sorts molecules by how far they enter the pores of the column.)
Experiment [2] has the same target. The experiment can be described thus: SDS-PAGE (oligomer bands); purified protein in 1x SDS sample buffer (1% SDS, with or without β-mercaptoethanol), incubated 20 min at 25-100°C, with or without biotin.
The target of experiment [3] is streptavidin C2 from Streptomyces cinnamonensis strain KPP02129, recombinant (Streptomyces cinnamonensis). Briefly: SEC-MALS; Superdex 200 10/300 GL, 20 mM Tris-HCl pH 8.0, 100 mM NaCl, 2 mM DTT; 1-2 mg/ml, 0.25 ml injected, 0.8 ml/min.
The target is the same in experiment [4]. The experiment can be described thus: SDS-PAGE (oligomer bands); purified protein in 1x SDS sample buffer (1% SDS, with or without β-mercaptoethanol), incubated 20 min at 25-100°C, with or without biotin.
Experiment [5] addresses C-terminal deletion mutant ΔC1 of streptavidin C1 (amino acids 1-161) (Streptomyces cinnamonensis). The experiment can be described thus: MST; Monolith NT.115; 200 nM His-tag-labelled (RED-tris-NTA) ΔC1-His or ΔC2-His, unlabelled peptide 2.4414-80 000 nM, PBS with 0.05% Tween 20, 10 min at room temperature, measured at 25°C, 40% LED power, 60% MST power, triplicate.
For experiment [6], the target named is C-terminal deletion mutant ΔC2 of streptavidin C1 (amino acids 1-158) (Streptomyces cinnamonensis). The description is as above.

T3 sequence (P02701 25-152): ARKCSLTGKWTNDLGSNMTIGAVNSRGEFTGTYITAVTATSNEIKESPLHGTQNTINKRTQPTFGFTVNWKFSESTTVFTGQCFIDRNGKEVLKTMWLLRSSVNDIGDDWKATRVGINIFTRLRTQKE

Turning to `O=C(O)CCCC[C@@H]1SC[C@@H]2NC(=O)N[C@@H]21` [D-biotin], the figures for the Kd on streptavidin C1 and at streptavidin C2 were approximately 3.06 pM and 3.06 ± 0.8 pM, respectively. Further, the T i result at avidin was “streptavidin (green) and avidin (brown) with or without biotin from differential scanning fluorimetry”.

Broadly, the stoichiometry N is a count of units in the complex or per binding partner. For “streptavidin C1 from Streptomyces cinnamonensis strain KPP02129, recombinant mature form (natural protein)”, the stoichiometry N in experiment [1] and in [2] was 4 throughout.

Turning to “streptavidin C2 from Streptomyces cinnamonensis strain KPP02129, recombinant (natural protein)”, the stoichiometry N in experiment [3] and in [4] was 4 in each case.

Consider SAADVEKARQLGVTSANPPASDGE [C-Lid_ECP peptide of streptavidin C1], for which the Kd in experiment [5] worked out at 21 µM; in experiment [6], 7.3 µM.

As to LGVTSANPPASDGE [ECP peptide (extension C-terminal peptide) of streptavidin C1], the Kd in experiment [5] stood at 0.049 µM; in experiment [6], 0.11 µM.
